We go through one protein from paper PMC2197187 (Acta Crystallographica Section F: Structural Biology and …, 2006).

Series [1] concerns the molecule itself. Nature of the series: mass spectrometry.
Series [2] deals with the molecule itself. As to the kind of experiment: SEC.

B1: Sso6206, recombinant, His tag cleaved by TEV protease (natural protein, Sulfolobus solfataricus P2)
chain: GAMAIRRLVLDVLKPIRGTSIVDLAERISKLDGVEGVNISVTDMDVETMGLMIIIEGTSLNFDDIRKMLEEEGCAIHSIDEVVSGNRIIEGKIKDDL
As a reminder, the stoichiometry N is the number of molecules, sites or subunits per partner or assembly. B1: the “stoichiometry N” value was not above 6 in series [1] and more than 10 monomers per protomer in series [2].
